Among the data in patent US20130195901A1 are fold increase of halftime of dissociation vs native peptide, fold reduction of ED50 vs native peptide and fold reduction of affinity vs native peptide values, retold here.

Assay [1] deals with HLA-A*0201 class I monomer of the iTopia Epitope Discovery System. Put plainly: iTopia off-rate assay.
Assay [2] shares this target. As to the kind of experiment: iTopia affinity assay (ED50).

“PRAME425-433 S425F L433Nle analog (peptide)” registered a fold increase of halftime of dissociation vs native peptide in assay [1] of 2 fold. This substance also had a fold reduction of ED50 vs native peptide in assay [2] of more than 4 fold.

The substance “PRAME425-433 analog, Nva at P2 (peptide)” showed a fold reduction of affinity vs native peptide in assay [2] of 3 fold.
